The test system of one data set is BasC wild-type. Briefly: [3H]L-alanine transport (influx, efflux, exchange) in BasC proteoliposomes. The data set is classed as biochemical, Carnobacterium sp AT7. The note with it: for 10 μM [3H]L-alanine exchange into BasC PLs containing 4 mM of the indicated compound: 4 mM compound inside PLs, n=1-3 and mean. How it is done:
BasC-GFP protein was reconstituted in E. coli polar lipids (Sigma-Aldrich, Madrid, Spain), as previously described. Lipids were dried under N2 and suspended in reconstitution buffer (20 mM Tris-Base, 150 mM NaCl, pH 7.4). The suspension was sonicated to clarity and purified BasC protein was added to reach the desired protein to lipid ratio of 1:100 (w:w). To destabilize the liposomes, 1.25% ß-D-octylglucoside was added and the mixture was incubated on ice with occasional agitation for 5 min. DDM and ß-D-octylglucoside were removed by dialysis for 40 h at 4 °C against 100 volumes of dialysis buffer. Proteoliposome (PL) suspensions were frozen in liquid N2 and stored at −80 °C until use.
For uptake experiments, the desired intraliposomal amino acid concentration was added to the PL suspension, which was then subjected to three freeze/thaw cycles. The extraliposomal amino acid content was then removed by ultracentrifugation (100,000 × g for 1 h at 4 °C) and PLs were resuspended to one-third of the initial volume with reconstitution buffer. Amino acid uptake assays were initiated after mixing 10 μl of cold PLs with 180 μl of transport buffer (20 mM Tris-Base, 150 mM NaCl, pH 7.4 plus 0.5–1 µCi/180 µl of radiolabeled L-amino acid (Perkin Elmer, Waltham, MA)) supplemented with the unlabeled amino acid to the desired concentration. This mixture was then incubated at room temperature for the indicated periods. […] Filters were then washed twice with 2 ml of stop buffer and dried, and the trapped radioactivity was counted. Transport measured in PLs containing no amino acid was subtracted from each data point to calculate the net exchange. […] BasC protein in PLs was determined by Coomassie blue staining in SDS-PAGE gels compared with known amounts of BasC in DDM micelles, determined by BCA assay (Pierce, Rockford, IL) and loaded in the same gel.

The subject of another data set is AdiC. Also on record: method as in PMID 22304019. The conditions noted are these: cited from earlier work.
Substrate in data set [1]: C[C@H](N)C(=O)O
Briefly: cells, lysate or membranes. The note with it: other: L-alanine uptake, pH 7.4, 37.0 °C.

The target in data set [2] is T1, bacterial alanine-serine-cysteine exchanger (BasC), wild-type, purified for crystallography (Carnobacterium sp. AT7).
T1 construct: BasC, bacterial alanine-serine-cysteine exchanger, a prokaryotic L-type amino acid transporter (LAT); In the transport assays (functional rows) BasC stood as uncleaved BasC-GFP reconstituted in E. coli polar lipid proteoliposomes; also called WT; source: E. coli BL21 Star (DE3), purified in DM (Ni2+-NTA, on-column HRV-3C cleavage); not shown: GFP, C-terminal, cleaved
T1 chain: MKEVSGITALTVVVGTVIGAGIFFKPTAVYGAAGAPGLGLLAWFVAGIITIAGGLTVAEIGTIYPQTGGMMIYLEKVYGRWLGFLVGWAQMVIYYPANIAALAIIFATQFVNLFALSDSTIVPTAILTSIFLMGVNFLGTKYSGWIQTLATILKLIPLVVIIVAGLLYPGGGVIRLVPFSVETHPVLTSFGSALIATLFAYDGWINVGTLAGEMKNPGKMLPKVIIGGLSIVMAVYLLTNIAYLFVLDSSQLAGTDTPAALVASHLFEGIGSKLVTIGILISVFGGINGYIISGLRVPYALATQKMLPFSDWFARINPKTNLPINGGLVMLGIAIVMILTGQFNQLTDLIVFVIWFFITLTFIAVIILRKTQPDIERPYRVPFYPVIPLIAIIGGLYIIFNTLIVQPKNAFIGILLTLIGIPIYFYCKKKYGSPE
Briefly: SPR; Biacore T-100; nanobody captured (around 200 RU) on a CM5 chip coated with anti-His antibody; BasC flowed at 500–2.5 nM; running buffer phosphate buffered saline, 0.17% DM. The note with it: both partners purified. A general note: In SPR one partner is held on a chip, and binding of the other changes the refractive index at the surface.

The next data set concerns the target BasC. As to the kind of experiment: Surface plasmon resonance of Nb74-BasC interaction. The data set is classed as binding, Carnobacterium sp AT7. The note with it: read-out: KD (affinity of Nb74 for BasC). How it is done: Surface plasmon resonance (Biacore T-100, GE Healthcare, Chicago, IL) was used to screen 29 Nbs (one from each family) for binding with BasC, purified as for crystallography. […] BasC was assayed at 500–2.5 nM in running buffer. […] The BasC-Nb74 complex rendered the best results initially and consequently crystals were optimized.

For data set [3], the target named is T1, bacterial alanine-serine-cysteine …. Briefly: crystal structure; BasC incubated with Nb74 at 1:1.2, complex purified by SEC in 0.17% DM; sitting-drop vapor diffusion at 4 °C, 27–29% PEG 400, 0.1 M ammonium acetate pH 8; apo (2.9 Å) and with 100 mM 2-AIB (3.4 Å). The note with it: both partners purified. (In gel filtration, larger molecules generally elute earlier.)

Setting [4] is: 5 µM Nb74 in medium, exchange with 4 mM L-alanine, NT = 100, n=1-6 and mean.

For `CC(C)(N)C(=O)O` [2-AIB, 2-aminoisobutyric acid], the Km in the data set on BasC wild-type (2-AIB as intraliposomal substrate, read-out: intracellular Km) turned out to be 34.5 ± 10 mM. The “intracellular Km relative to L-alanine Km” value in the data set with BasC wild-type (higher than L-alanine Km) is recorded as ~ 10 fold.
In the case of `CC(=O)O` [Acetate], in the data set on BasC wild-type, the “10 μM [3H]L-alanine exchange into BasC PLs containing 4 mM of the indicated compound” value was “not significant”.
For `CCN` [Ethylamine, ethylamine], the “10 μM [3H]L-alanine exchange into BasC PLs containing 4 mM of the indicated compound” value in the data set on BasC wild-type (listed as ethylamine) is listed as “not significant”.
For the molecule `NCCCC(=O)O` [GABA, γ-aminobutyrate], in the data set with BasC wild-type, the “10 μM [3H]L-alanine exchange into BasC PLs containing 4 mM of the indicated compound” value is given as “not a substrate”.
Take `NCCCCN=C(N)N` [agmatine]: in the data set on AdiC, the “intracellular apparent Km value compared to the extracellular one” value was “two-fold higher”.
As for `N=C(N)NCCC[C@H](N)C(=O)O` [arginine], in the data set with AdiC, the “intracellular apparent Km value compared to the extracellular one” value is “two-fold higher”.

B1: human Asc-1 (hAsc-1) wild-type (Homo sapiens) (protein)
chain: MAGHTQQPSGRGNPRPAPSPSPVPGTVPGASERVALKKEIGLLSACTIIIGNIIGSGIFISPKGVLEHSGSVGLALFVWVLGGGVTALGSLCYAELGVAIPKSGGDYAYVTEIFGGLAGFLLLWSAVLIMYPTSLAVISMTFSNYVLQPVFPNCIPPTTASRVLSMACLMLLTWVNSSSVRWATRIQDMFTGGKLLALSLIIGVGLLQIFQGHFEELRPSNAFAFWMTPSVGHLALAFLQGSFAFSGWNFLNYVTEEMVDARKNLPRAIFISIPLVTFVYTFTNIAYFTAMSPQELLSSNAVAVTFGEKLLGYFSWVMPVSVALSTFGGINGYLFTYSRLCFSGAREGHLPSLLAMIHVRHCTPIPALLVCCGATAVIMLVGDTYTLINYVSFINYLCYGVTILGLLLLRWRRPALHRPIKVNLLIPVAYLVFWAFLLVFSFISEPMVCGVGVIIILTGVPIFFLGVFWRSKPKCVHRLTESMTHWGQELCFVVYPQDAPEEEENGPCPPSLLPATDKPSKPQ
As for B1, in data set [1] (wild-type hAsc-1, HeLa cells), the Km came out at 0.0675 ± 0.0042 mM and the Vmax was 1703 ± 425 pmols µg protein^−1 min^−1.

B2: hAsc-1 K194A mutant (Homo sapiens; K194A) (protein)
chain: MAGHTQQPSGRGNPRPAPSPSPVPGTVPGASERVALKKEIGLLSACTIIIGNIIGSGIFISPKGVLEHSGSVGLALFVWVLGGGVTALGSLCYAELGVAIPKSGGDYAYVTEIFGGLAGFLLLWSAVLIMYPTSLAVISMTFSNYVLQPVFPNCIPPTTASRVLSMACLMLLTWVNSSSVRWATRIQDMFTGGALLALSLIIGVGLLQIFQGHFEELRPSNAFAFWMTPSVGHLALAFLQGSFAFSGWNFLNYVTEEMVDARKNLPRAIFISIPLVTFVYTFTNIAYFTAMSPQELLSSNAVAVTFGEKLLGYFSWVMPVSVALSTFGGINGYLFTYSRLCFSGAREGHLPSLLAMIHVRHCTPIPALLVCCGATAVIMLVGDTYTLINYVSFINYLCYGVTILGLLLLRWRRPALHRPIKVNLLIPVAYLVFWAFLLVFSFISEPMVCGVGVIIILTGVPIFFLGVFWRSKPKCVHRLTESMTHWGQELCFVVYPQDAPEEEENGPCPPSLLPATDKPSKPQ
Turning to B2, in data set [1] (K194A hAsc-1, HeLa cells), the Km came out at 0.825 ± 0.053 mM and the Vmax is reported as 152 ± 16 pmols µg protein^−1 min^−1.

B3: anti-BasC nanobody 74 (Nb74) (VHH)
VHH: QVQLVESGGGVVQAGGSLRLSCAASGRTFSSRAMGWFRQAPGEGREFVATISWSGSYTEYADSVKGRVTISRDNAKNTVYLQMNSLKPGDTAVYHCAAKNGGAASNYPNDYVYWGQGTQVTVSS
notes: nanobody from a llama immunised with BasC proteoliposomes, selected by phage display (vector pMESy4); Captured by its His tag on an anti-His antibody in the SPR experiment
B3: in the data set on BasC wild-type (setting [4]), the “Efflux of 10 µM [3H]L-alanine, normalized to non-treated PLs” value is 9.14 and the “Influx of 10 µM [3H]L-alanine, normalized to non-treated PLs” value is listed as 105.77. Moreover, the IC50 in the data set with BasC wild-type (read-out: IC50 of 10 µM [3H]L-alanine efflux, efflux in exchange with 4 mM L-alanine, Nb74 in PL medium) is about 300 nM. The molecule further returned a Kd in data set [2] of 3.9 ± 1.4 nM. Also, the dissociation constant (Kd) on BasC stood at 3.87 nM. The “stoichiometry N” value in data set [3] is 1.

Broadly, the Km is the substrate concentration at which the rate is half of its maximum. Usually IC50 stands for the point on the concentration scale where inhibition reaches its midpoint. For orientation: Kd means a measure of binding affinity in units of concentration. The term stoichiometry N denotes the number of molecules, sites or subunits per partner or assembly.

The record behind these values is PMC6472337, “L amino acid transporter structure and molecular bases for the asymmetry of substrate interaction” (Nature Communications, 2019).
